Patent US20160096894 (published 2016)
Substitutions are numbered along the chain they refer to. Values belong to the binder of their own block, whether it stands above or below them.

Legend:
[1] = molecular target: T1, IGF-IR extracellular domain (human, UniProt P08069); assay: SPR
[2] = molecular target: T1, IGF-IR extracellular domain; assay: SPR, protocol 1
IGF-IR = IGF-IR (human, UniProt P08069); assay: competition, IGF-I blocking
[3] = molecular target: T1, IGF-IR extracellular domain; assay: SPR, protocol 2

B1: 2.14.3 (antibody, V domains shown)
VH: GPGLVKPSETLSLTCTVSGGSISNYYWSWIRQPAGKGLEWIGRIYTSGSPNYNPSLKSRVTMSVDTSKNQFSLKLNSVTAADTAVYYCAVTIFGVVIIFDYWGQGTLVTVSS
VL: SSLSASVGDRVTFTCRASQDIRRDLGWYQQKPGKAPKRLIYAASRLQSGVPSRFSGSGSGTEFTLTISSLQPEDFATYYCLQHNNYPRTFGQGTEVEIIR
Kd [1]: 0.641 nM

B2: 2.12.1 (antibody, V domains shown)
VH: GRLGQAWRSLRLSCAASGFTFSDYYMSWIRQAPGKGLEWVSYISSSGSTRDYADSVKGRFTISRDNAKNSLYLQMNSLRAEDTAVYYCVRDGVETTFYYYYYGMDVWGQGTTVTVSS
VL: ASVGDRVTFTCRASQDIRRDLGWYQQKPGKAPKRLIYAASRLQSGVPSRFSGSGSGTEFTLTISSLQPEDFATYYCLQHNNYPRTFGQGTEVEIIR
Kd [2]: 7.37 nM
IC50 (IGF-IR): 0.45 µg/mL

B4: 2.13.2 (antibody, V domains shown)
VH: VQLLESGGGLVQPGGSLRLSCTASGFTFSSYAMNWVRQAPGKGLEWVSAISGSGGTTFYADSVKGRFTISRDNSRTTLYLQMNSLRAEDTAVYYCAKDLGWSDSYYYYYGMDVWGQGTTVTVSS
VL: DIQMTQFPSSLSASVGDRVTITCRASQGIRNDLGWYQQKPGKAPKRLIYAASRLHRGVPSRFSGSGSGTEFTLTISSLQPEDFATYYCLQHNSYPCSFGQGTKLEIK
Kd [2]: 3.5 nM
Kd [3]: 1.53 nM
IC50 (IGF-IR): 0.18 µg/mL

B5: 4.9.2 (antibody, V domains shown)
VH: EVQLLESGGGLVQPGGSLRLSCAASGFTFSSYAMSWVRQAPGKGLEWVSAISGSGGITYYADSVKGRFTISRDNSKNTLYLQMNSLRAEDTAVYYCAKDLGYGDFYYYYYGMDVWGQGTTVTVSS
VL: B4 VL with F7S, N31S, Y36F, R53K, S77R, C96L, S97T, Q100G, L104V
Kd [2]: 0.684 nM
Kd [3]: 0.427 nM
IC50 (IGF-IR): 0.1 µg/mL

Next, values leading:

Kd [1]: 13 nM
B3: 4.17.3 (antibody, V domains shown)
VH: PGLVKPSETLSLTCTVSGGSISSYYWSWIRQPPGKGLEWIGYIYYSGSTNYNPSLKSRVTISVDTSKNQFSLKLSSVTAADTAVYYCARTYSSSFYYYGMDVWGQGTTVTVSS
VL: GDRVTITCRASQSISTFLNWYQQKPGKAPKLLIHVASSLQGGVPSRFSGSGSGTDFTLTISSLQPEDFATYYCQQSYNAPLTFGGGTKVEIK

Kd [1]: 0.565 nM
B6: 6.1.1 (antibody, V domains shown)
VH: EVQLLESGGGLVQPGGSLRLSCAASGFTFSSYAMSWVRQAPGKGLEWVSGITGSGGSTYYADSVKGRFTISRDNSKNTLYLQMNSLRAEDTAVYYCAKDPGTTVIMSWFDPWGQGTLVTVSS
VL: RATLSCRASQSVRGRYLAWYQQKPGQAPRLLIYGASSRATGIPDRFSGSGSGTDFTLTISRLEPEDFAVFYCQQYGSSPRTFGQGTKVEIK
